Reference: US20220306695A1, “COMPSTATIN ANALOGUES AND THEIR MEDICAL USES” (priority 2019, published 2022)
Starred links: 1 amine or outer side, 2 acyl side, 3 side chain; linkers in the order of their positions; H or OH if unused. Positions of bridges follow the written chain, without caps; N, C: chain ends. Non-standard residues stand in square brackets, D forms with d. Groups on a side chain read outwards from the residue. *: point of attachment. Trp(1-Me) = Cn1cc(C[C@H](N)C(=O)O)c2ccccc21; C18 diacid = O=C(O)CCCCCCCCCCCCCCCCC(=O)*; C16 diacid = O=C(O)CCCCCCCCCCCCCCC(=O)*; γGlu = O=C(O)[C@H](CCC(=O)[*:2])N[*:1]; hCys = N[C@@H](CCS)C(=O)O; AEEA = NCCOCCOCC(=O)O; Sar = CNCC(=O)O

B1: Compound 102 (peptide)
peptide: Ac-FCI[Trp(1-Me)]QDWGEHRCTGAESK([AEEA-AEEA-γGlu-C16 diacid])-NH2
modifications: disulfide 2-12
SMILES: CC[C@H](C)[C@@H]1NC(=O)[C@@H](NC(=O)[C@H](Cc2ccccc2)NC(C)=O)CSSC[C@@H](C(=O)N[C@H](C(=O)NCC(=O)N[C@@H](C)C(=O)N[C@@H](CCC(=O)O)C(=O)N[C@@H](CO)C(=O)N[C@@H](CCCCNC(=O)COCCOCCNC(=O)COCCOCCNC(=O)CC[C@H](NC(=O)CCCCCCCCCCCCCCC(=O)O)C(=O)O)C(N)=O)[C@@H](C)O)NC(=O)[C@H](CCCNC(=N)N)NC(=O)[C@H](Cc2c[nH]cn2)NC(=O)[C@H](CCC(=O)O)NC(=O)CNC(=O)[C@H](Cc2c[nH]c3ccccc23)NC(=O)[C@H](CC(=O)O)NC(=O)[C@H](CCC(N)=O)NC(=O)[C@H](Cc2cn(C)c3ccccc23)NC1=O
B2: Compound 119 (peptide)
peptide: Ac-SEFCI[Trp(1-Me)]QDWGEHRC[Sar]EGAK([AEEA-γGlu-AEEA-Gly-γGlu-C18 diacid])-NH2
modifications: disulfide 4-14
SMILES: CC[C@H](C)[C@@H]1NC(=O)[C@@H](NC(=O)[C@H](Cc2ccccc2)NC(=O)[C@H](CCC(=O)O)NC(=O)[C@H](CO)NC(C)=O)CSSC[C@@H](C(=O)N(C)CC(=O)N[C@@H](CCC(=O)O)C(=O)NCC(=O)N[C@@H](C)C(=O)N[C@@H](CCCCNC(=O)COCCOCCNC(=O)CC[C@H](NC(=O)COCCOCCNC(=O)CNC(=O)CC[C@H](NC(=O)CCCCCCCCCCCCCCCCC(=O)O)C(=O)O)C(=O)O)C(N)=O)NC(=O)[C@H](CCCNC(=N)N)NC(=O)[C@H](Cc2c[nH]cn2)NC(=O)[C@H](CCC(=O)O)NC(=O)CNC(=O)[C@H](Cc2c[nH]c3ccccc23)NC(=O)[C@H](CC(=O)O)NC(=O)[C@H](CCC(N)=O)NC(=O)[C@H](Cc2cn(C)c3ccccc23)NC1=O
B3: Compound 104 (peptide)
peptide: Ac-EGSAYCI[Trp(1-Me)]QDWGEHRC[Sar]EGK([AEEA-AEEA-γGlu-C16 diacid])-NH2
modifications: disulfide 6-16
SMILES: CC[C@H](C)[C@@H]1NC(=O)[C@@H](NC(=O)[C@H](Cc2ccc(O)cc2)NC(=O)[C@H](C)NC(=O)[C@H](CO)NC(=O)CNC(=O)[C@H](CCC(=O)O)NC(C)=O)CSSC[C@@H](C(=O)N(C)CC(=O)N[C@@H](CCC(=O)O)C(=O)NCC(=O)N[C@@H](CCCCNC(=O)COCCOCCNC(=O)COCCOCCNC(=O)CC[C@H](NC(=O)CCCCCCCCCCCCCCC(=O)O)C(=O)O)C(N)=O)NC(=O)[C@H](CCCNC(=N)N)NC(=O)[C@H](Cc2c[nH]cn2)NC(=O)[C@H](CCC(=O)O)NC(=O)CNC(=O)[C@H](Cc2c[nH]c3ccccc23)NC(=O)[C@H](CC(=O)O)NC(=O)[C@H](CCC(N)=O)NC(=O)[C@H](Cc2cn(C)c3ccccc23)NC1=O
B4: Compound 111 (peptide)
peptide: Ac-EGSAYCI[Trp(1-Me)]QDWGEHRC[Sar]EK[γGlu]K([AEEA-AEEA-γGlu-C18 diacid])-NH2
modifications: disulfide 6-16
SMILES: CC[C@H](C)[C@@H]1NC(=O)[C@@H](NC(=O)[C@H](Cc2ccc(O)cc2)NC(=O)[C@H](C)NC(=O)[C@H](CO)NC(=O)CNC(=O)[C@H](CCC(=O)O)NC(C)=O)CSSC[C@@H](C(=O)N(C)CC(=O)N[C@@H](CCC(=O)O)C(=O)N[C@@H](CCCCN)C(=O)N[C@@H](CCC(=O)N[C@@H](CCCCNC(=O)COCCOCCNC(=O)COCCOCCNC(=O)CC[C@H](NC(=O)CCCCCCCCCCCCCCCCC(=O)O)C(=O)O)C(N)=O)C(=O)O)NC(=O)[C@H](CCCNC(=N)N)NC(=O)[C@H](Cc2c[nH]cn2)NC(=O)[C@H](CCC(=O)O)NC(=O)CNC(=O)[C@H](Cc2c[nH]c3ccccc23)NC(=O)[C@H](CC(=O)O)NC(=O)[C@H](CCC(N)=O)NC(=O)[C@H](Cc2cn(C)c3ccccc23)NC1=O
B5: Compound 54 (peptide)
peptide: Ac-EGSAYCI[Trp(1-Me)]QDWGEHRC[Sar]E-NH2
modifications: disulfide 6-16
SMILES: CC[C@H](C)[C@@H]1NC(=O)[C@@H](NC(=O)[C@H](Cc2ccc(O)cc2)NC(=O)[C@H](C)NC(=O)[C@H](CO)NC(=O)CNC(=O)[C@H](CCC(=O)O)NC(C)=O)CSSC[C@@H](C(=O)N(C)CC(=O)N[C@@H](CCC(=O)O)C(N)=O)NC(=O)[C@H](CCCNC(=N)N)NC(=O)[C@H](Cc2c[nH]cn2)NC(=O)[C@H](CCC(=O)O)NC(=O)CNC(=O)[C@H](Cc2c[nH]c3ccccc23)NC(=O)[C@H](CC(=O)O)NC(=O)[C@H](CCC(N)=O)NC(=O)[C@H](Cc2cn(C)c3ccccc23)NC1=O
B6: Compound 107 (peptide)
peptide: {C16 diacid}-EGSEYCI[Trp(1-Me)]QDWGEHRC[Sar]E-NH2
modifications: disulfide 6-16
SMILES: CC[C@H](C)[C@@H]1NC(=O)[C@@H](NC(=O)[C@H](Cc2ccc(O)cc2)NC(=O)[C@H](CCC(=O)O)NC(=O)[C@H](CO)NC(=O)CNC(=O)[C@H](CCC(=O)O)NC(=O)CCCCCCCCCCCCCCC(=O)O)CSSC[C@@H](C(=O)N(C)CC(=O)N[C@@H](CCC(=O)O)C(N)=O)NC(=O)[C@H](CCCNC(=N)N)NC(=O)[C@H](Cc2c[nH]cn2)NC(=O)[C@H](CCC(=O)O)NC(=O)CNC(=O)[C@H](Cc2c[nH]c3ccccc23)NC(=O)[C@H](CC(=O)O)NC(=O)[C@H](CCC(N)=O)NC(=O)[C@H](Cc2cn(C)c3ccccc23)NC1=O
B7: Compound 124 (peptide)
peptide: Ac-SEFCI[Trp(1-Me)]QEWGEHRC[Sar]EGE[AEEA][AEEA]K([γGlu-Gly-γGlu-C18 diacid])-NH2
modifications: disulfide 4-14
SMILES: CC[C@H](C)[C@@H]1NC(=O)[C@@H](NC(=O)[C@H](Cc2ccccc2)NC(=O)[C@H](CCC(=O)O)NC(=O)[C@H](CO)NC(C)=O)CSSC[C@@H](C(=O)N(C)CC(=O)N[C@@H](CCC(=O)O)C(=O)NCC(=O)N[C@@H](CCC(=O)O)C(=O)NCCOCCOCC(=O)NCCOCCOCC(=O)N[C@@H](CCCCNC(=O)CC[C@H](NC(=O)CNC(=O)CC[C@H](NC(=O)CCCCCCCCCCCCCCCCC(=O)O)C(=O)O)C(=O)O)C(N)=O)NC(=O)[C@H](CCCNC(=N)N)NC(=O)[C@H](Cc2c[nH]cn2)NC(=O)[C@H](CCC(=O)O)NC(=O)CNC(=O)[C@H](Cc2c[nH]c3ccccc23)NC(=O)[C@H](CCC(=O)O)NC(=O)[C@H](CCC(N)=O)NC(=O)[C@H](Cc2cn(C)c3ccccc23)NC1=O
B8: Compound 146 (peptide)
peptide: SEFAIWQDWGEHRCGEGEXXK
modifications: not fully specified; N-acetyl; C-terminal amide; delta-cystathionine (Ctt2) thioether bridge A4-hCys14 (hCys written C); W6 is 1-Me-Trp; G15 is Sar; X19 and X20 are Peg3; K21 side chain bears [17-carboxy-heptadecanoyl][γGlu]G[γGlu]
B9: Compound 153 (peptide)
peptide: SEFAIWQEWGEHRCGEGEXXK
modifications: not fully specified; N-acetyl; C-terminal amide; delta-cystathionine (Ctt2) thioether bridge A4-hCys14 (hCys written C); W6 is 1-Me-Trp; G15 is Sar; X19 and X20 are Peg3; K21 side chain bears [17-carboxy-heptadecanoyl][γGlu]G[γGlu]
B10: Compound 125 (peptide)
peptide: Ac-SEYCI[Trp(1-Me)]QEWGEHRC[Sar]EGE[AEEA][AEEA]K([γGlu-Gly-γGlu-C18 diacid])-NH2
modifications: disulfide 4-14
SMILES: CC[C@H](C)[C@@H]1NC(=O)[C@@H](NC(=O)[C@H](Cc2ccc(O)cc2)NC(=O)[C@H](CCC(=O)O)NC(=O)[C@H](CO)NC(C)=O)CSSC[C@@H](C(=O)N(C)CC(=O)N[C@@H](CCC(=O)O)C(=O)NCC(=O)N[C@@H](CCC(=O)O)C(=O)NCCOCCOCC(=O)NCCOCCOCC(=O)N[C@@H](CCCCNC(=O)CC[C@H](NC(=O)CNC(=O)CC[C@H](NC(=O)CCCCCCCCCCCCCCCCC(=O)O)C(=O)O)C(=O)O)C(N)=O)NC(=O)[C@H](CCCNC(=N)N)NC(=O)[C@H](Cc2c[nH]cn2)NC(=O)[C@H](CCC(=O)O)NC(=O)CNC(=O)[C@H](Cc2c[nH]c3ccccc23)NC(=O)[C@H](CCC(=O)O)NC(=O)[C@H](CCC(N)=O)NC(=O)[C@H](Cc2cn(C)c3ccccc23)NC1=O
B11: Compound 149 (peptide)
peptide: GEFAIWQDWGEHRCGEAEXXK
modifications: not fully specified; N-acetyl; C-terminal amide; delta-cystathionine (Ctt2) thioether bridge A4-hCys14 (hCys written C); W6 is 1-Me-Trp; G10 is Sar; G15 is Sar; X19 and X20 are Peg3; K21 side chain bears [17-carboxy-heptadecanoyl][γGlu]G[γGlu]

Target: T1, Human C3 (human, UniProt P01024 23-1663)
T1 construct: In SPR the bought human C3 was immobilised on CM5 chips by amine coupling; In the haemolysis assay the C3 is that of diluted human serum; also called complement C3
Assay: SPR, C3 immobilised
Experimental: Surface plasmon resonance (SPR) was used to characterize peptides with respect to their binding affinity (Kd) for C3. Human C3 (Complement tech cat #A1 13c) was immobilised on individual flow cells of CM5 sensor chips (GE Healthcare) using standard amine coupling to a density of approximately 3000 resonance units (RU) in a buffer consisting of 10 mM phosphate pH 7.4, 150 mM NaCl, 0.05% Tween20.
For interaction experiments a multi-cycle experiment approach was used and performed using either a Biacore™ T200 or Biacore™ X100 instrument (GE Healthcare) at 25° C. Peptides were injected in increasing concentration series (5-8 different concentrations) for 60-120 s at a flow rate of 30 μL/min in a buffer consisting of 10 mM Tris buffer at pH 7.4, with 150 mM NaCl and 0.05% Tween20. This was followed by a dissociation period for up to 10 min. The C3 surface was regenerated between runs by a 45 s injection of 3 M MgCl₂.
Sensorgrams were double-referenced (reference surface, blanks) prior to analysis of the kinetic profiles by globally fitting data to a 1:1 Langmuir binding model to obtain association and dissociation rates for calculation of the equilibrium dissociation constant Kd. Each peptide was tested at in at least 2 independent experiments.

T1 sequence (P01024 23-1663 limits assumed): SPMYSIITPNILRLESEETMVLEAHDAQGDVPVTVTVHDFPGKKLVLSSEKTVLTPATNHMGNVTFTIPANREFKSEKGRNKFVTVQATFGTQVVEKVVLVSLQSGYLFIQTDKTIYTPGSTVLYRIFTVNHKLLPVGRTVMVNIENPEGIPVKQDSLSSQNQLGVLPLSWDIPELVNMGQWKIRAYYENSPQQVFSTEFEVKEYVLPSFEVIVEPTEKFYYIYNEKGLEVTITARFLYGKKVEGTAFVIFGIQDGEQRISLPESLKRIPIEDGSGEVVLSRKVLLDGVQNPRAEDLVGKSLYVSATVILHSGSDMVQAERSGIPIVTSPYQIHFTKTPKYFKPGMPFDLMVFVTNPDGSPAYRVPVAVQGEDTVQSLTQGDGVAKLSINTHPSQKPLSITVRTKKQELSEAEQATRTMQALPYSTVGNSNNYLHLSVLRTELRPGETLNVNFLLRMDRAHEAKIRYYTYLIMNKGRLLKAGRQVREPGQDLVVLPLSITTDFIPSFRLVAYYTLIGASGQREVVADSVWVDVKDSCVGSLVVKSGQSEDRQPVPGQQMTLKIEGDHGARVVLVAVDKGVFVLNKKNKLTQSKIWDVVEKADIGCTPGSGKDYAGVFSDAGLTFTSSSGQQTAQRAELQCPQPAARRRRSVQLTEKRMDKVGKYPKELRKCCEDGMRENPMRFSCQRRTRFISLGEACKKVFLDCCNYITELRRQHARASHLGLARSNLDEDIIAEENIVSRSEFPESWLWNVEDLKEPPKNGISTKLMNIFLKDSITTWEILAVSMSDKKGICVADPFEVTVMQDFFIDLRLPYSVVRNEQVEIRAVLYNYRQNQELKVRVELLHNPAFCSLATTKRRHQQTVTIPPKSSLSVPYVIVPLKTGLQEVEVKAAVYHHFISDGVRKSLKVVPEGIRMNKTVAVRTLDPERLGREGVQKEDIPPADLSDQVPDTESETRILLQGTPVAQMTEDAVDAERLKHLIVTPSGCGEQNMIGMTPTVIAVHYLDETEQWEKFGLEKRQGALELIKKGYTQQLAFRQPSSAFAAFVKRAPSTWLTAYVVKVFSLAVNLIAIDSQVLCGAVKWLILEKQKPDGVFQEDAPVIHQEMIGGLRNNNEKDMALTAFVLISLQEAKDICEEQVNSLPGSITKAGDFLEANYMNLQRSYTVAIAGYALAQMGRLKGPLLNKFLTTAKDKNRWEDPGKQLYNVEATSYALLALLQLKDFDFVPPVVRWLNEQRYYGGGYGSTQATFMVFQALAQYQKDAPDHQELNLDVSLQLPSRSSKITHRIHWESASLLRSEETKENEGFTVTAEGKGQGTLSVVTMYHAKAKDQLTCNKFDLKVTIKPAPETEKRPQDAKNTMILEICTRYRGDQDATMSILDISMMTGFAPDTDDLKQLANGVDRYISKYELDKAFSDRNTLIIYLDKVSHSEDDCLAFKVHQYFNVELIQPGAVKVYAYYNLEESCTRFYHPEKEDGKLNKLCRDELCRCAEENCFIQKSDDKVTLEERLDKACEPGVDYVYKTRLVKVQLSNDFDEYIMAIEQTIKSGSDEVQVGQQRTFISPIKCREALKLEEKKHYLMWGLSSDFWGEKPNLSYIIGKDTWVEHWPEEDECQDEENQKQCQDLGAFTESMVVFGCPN

| Binder | Kd |
| --- | --- |
| B1 | 1.7 nM |
| B2 | 9.8 nM |
| B3 | 34 nM |
| B4 | 8.2 nM |
| B5 | 3 nM |
| B6 | 6.1 nM |
| Ac-SEYCI[Trp(1-Me)]QDWGEHRC[Sar]EGE[AEEA][AEEA]K([γGlu-Gly-γGlu-C18 diacid])-NH2 (disulfide 4-14) [Compound 117] | 24 nM |
| B7 | 31 nM |
| B8 | 0.43 nM |
| B9 | 11.1 nM |
| Ac-SEFCI[Trp(1-Me)]QDWGEHRCTEGE[AEEA][AEEA]K([γGlu-Gly-γGlu-C18 diacid])-NH2 (disulfide 4-14) [Compound 126] | 5.2 nM |
| Ac-SEF[hCys]I[Trp(1-Me)]QEWGEHRA[Sar]EGE[AEEA][AEEA]K([γGlu-Gly-γGlu-C18 diacid])-NH2 (thioether 4-14) [Compound 167] | 57.4 nM |
| B10 | 71 nM |
| B11 | 0.5 nM |

Target: T1, Human C3
Assay: cell-based or functional assay

| Binder | IC50[nM], inhibition of hemolysis |
| --- | --- |
| B1 | < 100 nM |
| B2 | < 100 nM |
| B3 | < 100 nM |
| B4 | < 100 nM |
| B5 | < 100 nM |
| B6 | < 100 nM |
| Ac-SEYCI[Trp(1-Me)]QDWGEHRC[Sar]EGE[AEEA][AEEA]K([γGlu-Gly-γGlu-C18 diacid])-NH2 (disulfide 4-14) [Compound 117] | < 250 nM |
| B7 | < 100 nM |
| B8 | < 100 nM |
| B9 | < 100 nM |
| Ac-SEFCI[Trp(1-Me)]QDWGEHRCTEGE[AEEA][AEEA]K([γGlu-Gly-γGlu-C18 diacid])-NH2 (disulfide 4-14) [Compound 126] | < 100 nM |
| Ac-SEF[hCys]I[Trp(1-Me)]QEWGEHRA[Sar]EGE[AEEA][AEEA]K([γGlu-Gly-γGlu-C18 diacid])-NH2 (thioether 4-14) [Compound 167] | < 500 nM |
| B10 | < 500 nM |
| B11 | < 100 nM |
